Assay [1] addresses T1, full length recombinant human EPO receptor (human, UniProt P19235 25-508).
T1 sequence: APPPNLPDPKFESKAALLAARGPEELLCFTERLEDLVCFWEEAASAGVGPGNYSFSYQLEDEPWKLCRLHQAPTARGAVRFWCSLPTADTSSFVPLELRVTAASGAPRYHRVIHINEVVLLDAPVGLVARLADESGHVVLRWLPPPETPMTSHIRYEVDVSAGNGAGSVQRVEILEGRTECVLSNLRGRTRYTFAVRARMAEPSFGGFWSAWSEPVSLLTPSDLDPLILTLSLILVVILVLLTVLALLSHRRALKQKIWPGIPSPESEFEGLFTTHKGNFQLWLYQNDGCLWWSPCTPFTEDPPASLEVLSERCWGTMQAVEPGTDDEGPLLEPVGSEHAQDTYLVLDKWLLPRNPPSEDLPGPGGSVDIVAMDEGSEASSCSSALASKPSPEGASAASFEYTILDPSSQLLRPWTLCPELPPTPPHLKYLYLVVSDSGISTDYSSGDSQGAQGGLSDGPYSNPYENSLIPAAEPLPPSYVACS
Description: cell-based or functional assay.

A further assay concerns the target T2, peptide SE-3 (human).
T2 construct: also called SE-3 peptide
T2 peptide: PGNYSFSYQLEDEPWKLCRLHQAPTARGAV
Briefly: ELISA on plate-coated peptide SE-3. The procedure:
Plates were blocked for 30 minutes at room temperature with 100 ul of 5% BSA in PBS (Gibco (Invitrogen (Carlsbad, Calif.)) Cat.#10010). After removal of blocking solution, 50 ul of Ab12 at 5 ug/ml in PBS with 1% BSA was added to wells and plates were incubated at room temperature for 2 hours. Plates were washed three times using a Skatron 400 Plate Washer with PBS/0.05% Tween 20 and 50 ul of secondary antibody diluted in PBS/0.25% BSA/0.05% Tween 20 added to the wells. For Ab12, goat anti-human IgG (Fc)-HRP (Caltag (Burlingame, Calif.) Cat.#H10507) diluted 1:1000 was used and for Ab 71A (available from the American Type Culture Collection HB 11689, also described in U.S. Pat. No. 6,319,499), goat anti mouse IgG (Fc)-HRP (Jackson Laboratories (West Grove, Pa.) Cat.#115-035-164) diluted 1:5000 was used. After a 1 hour incubation at room temperature, plates were washed three times as before and 50 ul of OPD Developing Reagent (Sigma #P9187) added to each well. Color development was stopped by addition of 50 ul of 1N HCl to the wells and optical density measured at 490 nm on a Victor 1420 Multi-Label Counter.
For orientation: An ELISA detects its analyte on a solid surface through an enzyme-linked reagent.

Assay [2] concerns the target T3, soluble human EPO receptor (human, UniProt P19235 25-250).
T3 construct: extracellular domain; Printed only as 'soluble human EPO receptor'
T3 sequence (looked up): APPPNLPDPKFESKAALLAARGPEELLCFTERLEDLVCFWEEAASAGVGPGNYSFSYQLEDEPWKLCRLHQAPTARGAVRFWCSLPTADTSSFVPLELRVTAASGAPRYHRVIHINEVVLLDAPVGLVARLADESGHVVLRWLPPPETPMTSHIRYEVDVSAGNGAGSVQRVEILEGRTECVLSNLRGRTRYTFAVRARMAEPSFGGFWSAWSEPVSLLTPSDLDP
Description: SPR (Biacore 2000), antibody immobilized on chip, soluble receptor 10-200 nM injected. The procedure:
Immobilizations of antibody were performed using the default immobilization program in the Biacore software package. Antibodies were diluted to 10 ug/mL in the supplied acetate buffers to prescreen for the appropriate pH at which to conduct the immobilizations. For immobilizations, antibodies were diluted into the appropriate acetate buffer (10 mM acetate pH 4.0) and coupled directly to the chip surface using standard EDC chemistry at three different protein levels (500, 1000, and 1500 RU). The fourth flow cell was mock coupled with EDC to cap the carboxyl groups and provide a background surface as a negative control.
Binding studies were performed by successive injections of varying concentrations of soluble human EPO receptor over the chip surface (500 RU immobilized protein). […]
Data were fit to the models available in the BiaEvaluation 3.0.2 software package (Biacore). […] Dissociation constants were calculated directly from fitting to the Langmuir binding model. For the bivalent analyte model, the dissociation constants were calculated indirectly using the calculated values for the kinetic dissociation and kinetic association constants, kd and kₐ.
On the technique in general: In SPR one partner is held on a chip, and binding of the other changes the refractive index at the surface.

Assay [3] has as its target T4, biotinylated EpoR (Abbott CHO cell derived ref.# RB69084:4) (UniProt P19235 25-250, limits assumed, biotinylated with biotin-NHS (sites not given)).
T4 construct: also called biotin EpoR; biotin-EpoR
T4 sequence (looked up): T3 sequence (looked up)
Briefly: ELISA, HEK 293 supernatant titrated 1:2 on biotin-EpoR captured on streptavidin plates.

Residue numbers refer to the chain shown, from its start.

B1: Ab12 (antibody, human IgG2, V domains shown)
VH: QVQLQESGPGLVKPSETLSLTCTVSGASISSYYWSWIRQPPGKGLEWIGYIYYSGSTNYNPSLKSRVTISVDTSKNQFSLKLRSVTAADTAVYYCARERLGIGDYWGQGTLVTVSS
VL: DIQLTQSPSSLSASVGDRVTITCRASQGIRNDLGWYQQKPGKAPKRLIYAASSLQSGVPSRFSGSGSGTEFTLTISSLQPEDFATYYCLQHNTYPPTFGQGTKVEIK
notes: Human antibody from XenoMouse; also called ABT2-SCX-012; AB-ABT2-XG2-012
As usually defined, the Kd is the concentration at which binding is half-saturated. Low values mean a tighter complex, high ones a looser complex. Consider B1, for which the “proliferation of F36E cells after storage of Ab12 at 4 C, compared with the EPO control” value in assay [1] is ~10 fold. Besides, the binding result with peptide SE-3 was “no binding (tested: 5 ug/ml)”. The molecule also showed a Kd in assay [2] of 17.5 nM.

B2: ABT2-SCX-254 (antibody, V domains shown)
VH: QVQLVESGGGVVQPGRSLRLSCAASGFTFSSYGMHWVRQAPGKGLEWVAVIWFDGNNKFYADSVKGRFTISRDNSKNTLYLQMNSLRVEDTAVYYCARGGSYWDYWGQGTLVTVSS
VL: DIVMTQTPLFSFVMIGQPASISCRSRQSLVHSDGNTYLNWLQQRPGQPPRLLIYKTSNRFSGVPDRFSGSGAGTDFTLKISRVEAEDVGVYYCMQATQFPITFGQGTRLEIK
As for B2, the “Binding (dilution of supernatant)” value in assay [3] is 8 dilution 1:n.

B3: ABT2-SCX-054 (antibody, V domains shown)
VH: B2 VH with S31K, I51L, F53Y, N56S, F59Y, V88A, G100P, S101Y, W103F
VL: not shown
In the case of B3, the “Binding (dilution of supernatant)” value in assay [3] was > 64 dilution 1:n.

B4: ABT2-SCX-022 (antibody, V domains shown)
VH: QVQLVESGGGVVQPGRSLRLSCAASGFTFSSYGMHWVRQAPGKGLEWVVVISYDGSNKYYADSVKGRFTISRDNSKNTLYLQMNSLRVEDTAVYYCARDHGGRYVYDYGMDVWGQGTTVTVSS
VL: DIQMTQSPSSVSASVGDRVSITCRASQGISSWLAWYQQKPGKAPTLLIYAASSLQRGVPSRFSGSGSGTDFTLTISSLQPEDFATYFCQQANSFPFTFGPGTKVDIK
Consider B4, for which, in assay [3], the “Binding (dilution of supernatant)” value is > 64 dilution 1:n.

B5: ABT2-SCX-267 (antibody, V domains shown)
VH: B4 VH with V49A, R98K
VL: B4 VL with S30G, K42Q, S76N, I106V
In the case of B5, the “Binding (dilution of supernatant)” value in assay [3] is > 64 dilution 1:n.

B6: Ab198 (antibody, human IgG2, V domains shown)
VH: B4 VH with A23V, V49A
VL: B4 VL with V15I, S53T
notes: Human antibody from XenoMouse
In the case of B6, the binding result with peptide SE-3 is reported as “no binding”. In addition, in assay [2], binding was put at a Kd of 13.9 nM.

These data come from patent US20040071694A1 (published 2004).
